{
  "source": "the DeepSol protein solubility set",
  "data": [
    {"test": "soluble on expression in E. coli; label from the status in PepcDB or PDB records", "values": [
      {"sequence": "MRILVVRHGLPEDPRCFAYDPVQRLIAIGTGRGHIRIIGDAGVDYLLKHESGEPVLHMQFLVNEGGLITSCGTDSIHLWNYRQKTAEIVHTVQLSKESVSCIHLPVAGKWLFIGTDKGNVYFLCLNSFLLSPYVINWNKAIDLSCRVHPGPVRQLAVSPAENTKLLIVYDKGIVVQWNLGTREVDRYPLDPPIKSVNWHFDGRQILTGNVDGSISLYNHKKSTEAIQRTTPHGSGPCRPIQQVEWKHMSETESIIMFSGGMPTDDGLPMPALTILKGGKSATVLEMDWPIIQFIPLNQNIWNSIPQCPHSVAVLLKHDFMVLDLNQNGHPVIESPHAMNIHESPVTCMAYYSDCPLDLIGALTLVGTKQRNKEFSARSWPVTGGLGRECATGHQELVVTGHKDGSLKFWQETGEHLQILYKLKSSSHFERLEEMETSDKVSHAVKYIELCLESRQLLVAGISGQVTLFRFTKQEICGTIAVVNIPLLGNLSSNLPNNDFDKSPVPNGPGKEIRRQRKIVSRESTNSLDTSDSGDERIVPFKVRGAPVKRPPGFVPELACFVPWHSHAKVDQITTICLNSSYGIIAIGTSSGLALVDTTQCALIYSWTTNELYGSDPTPAIQLSMQLSDAASPLEIDEFENDDTLIYNTDTGNYTLRSTRNSLTPSSNGFLHPGEMPTRPKSAANSSNKSGGMMGLFRRNTAELAATIRERYQGNRSESATTDRPDVEHRGETPPPTPNEGNKVQKAGRSHSVKGSFIRRFAKSSSSKEKKEVKIEVDNQSNSGIERSRSFHSHISEEGDSQRESPSSGRQLNTSSPSTSSQSLERSMSTQPQESITSLSFIHSYSKKNDSKMSPCLWVGTSAGASLALNLILPEDRFTSTIVVAPSGTVVRLKGQVISQSFMDNTFCIISPASESYKEAAKEQSATSPDRSLLNRVNTKASLAPQYSSSIDSNDEISQILIVAAENEVKVVALPTFSQLYVQKFDEIPLVKATPTHIRGYPCLMCLSAAGQIIMLSLPSLRILQTSTIFPHSVEIDDPLCQKTAFSDHGLGVYMASQTEMEKYTMCSEIAEQTGESLGELFVPCEMPEQPKNNSFLKGVSSIFGGTPRNDPNDIDAILSENMGVKNSSGVNPMRSVARTIPGPSVQMDRAQAGGVSAGQAAAMALQNLNERTEKLNATVDATENLKNNAMSLSSRTGKLVEKYEKKKWYNF", "soluble on expression in E. coli": "not soluble"},
      {"sequence": "MAHHHHHHMFLAATLDGVRSILSRIDPRQLHLYEIIREGSPCHLYLDVERESNHTALQHVIAVDDDSTSSSVEEADSLVQVEEDVGGTRRIVFQCCQSRYQELRRLAVRDPTDVCGLDCRIEPDNRNTCDVLLSALNSFVRDRHPSWVPPGLQAEGPGSVFADAWVLESVPLSGAATKFSQHYILKLHGRMFESTNSVKAFVRDFVAHVRERAAHDSQLHGALFFHKPPAWYPVFRELPLDYPRTTFPYLPRRCVIDEAVYSKNRMMRCVGSCKLGKQSVLLPYRHYVAGSCVEYFSNSANAASVSLDVFLSTLIAHRFAKDVAPVSLIKLTEEIEAPKNTRACALPASVSEGTAPATLHTVSLDVDIALLTSSLQRAYSQVANRACTVAQPHSLHGRFLSFSVRGTRYCQHIGREHKSNNVYLVVDTERMTFVQKCFDPDCASYRSPPRLLGGTP", "soluble on expression in E. coli": "not soluble"},
      {"sequence": "MKKVIKKYFFLALAIIMYSCNEDEKYDILERYTPETITSDEIAPVLNLQAQYMDSNSEIVLVTWMNPEDDFLSKVEISCCSANDNLLGEPVLLDAVSTKVGSYQTSLSVEERGYVKIVAINEKGVRSEARTAEILSSQQDFVYRADCLMSSVIELFFGGRYNAWNENYPNATGPYWDGIAAVWGQGAAYSGFVTMYKVTKETNNEKLRAKYAEKEETFLNSIDIFLNNGSGRKSFAYGTYIGPNDERYYDDNVWIGIEMANLYELTGNEVYLQHANTVWNFILEGIDDVTGGGVYWKEGAVSKHTCSTAPAAVMALKLYQLSKNESYLEIAKSLYSYCKDVLQDPNDYLFYDNVRLSDPSDKNSELKVSKDKFTYNSGQPMLAAAMLYRITKEEQFLKDAQNIAQSIYKKWFKNYHSSILDRDIMILSDPNTWFNAVMFRGFVELYKIDKNDVYVKAVKNTMEHAWQSNCRNRLTNLMSDDYAGDKKEGKWNIKTQGAFVEIFSLIGELEQLGCFQELEHHHHHH", "soluble on expression in E. coli": "not soluble"},
      {"sequence": "MCTALMAIPEDGDTEVVSEKTFKVFSLLNLDAPYLHDKAHVTEEEEITGCCGRRKGALIATMQVDEIGVMPGMTSKISLTVENKTKKRKKWMRKKDNHECVLLSLCQQLDFVAVNRNDPMMIDRKSITIAVESHGTCKTKAGVGPQTKEIEFSVPPNLPPTSIHANRLVTVSYFFKLDLDHFDLVLPVIVGSVKSSASNGSEK", "soluble on expression in E. coli": "not soluble"},
      {"sequence": "LHPEPQSQHELGNVFLKFKDKFCVYEEYCSNHEKALRLLVELNKIPTVRAFLLSCMLLGGRKTTDIPLEGYLLSPIQRICKYPLLLKELAKRTPGKHPDHPAVQSALQAMKTVCSNINETKRQMEKLEALEQLQSHIEGWEGSNLTDICTQLLLQGTLLKISAGNIQERAFFLFDNLLVYCKRKSRVTGSKKSTKRTKSINGSLYIFRGRINTEVMEVENVEDGTADYHSNGYTVTNGWKIHNTAKNKWFVCMAKTAEEKQKWLDAIIREREQRESLKLGMERDAYVMIAEKGEKLYHMMMNKKVNLIKDRRRKLSTVPKCFLGNEFVAWLLEIGEISKTEEGVNLGQALLENGIIHHVSDKHQFKNEQVMYRFRYDDGTYKARSELEDIMSKGVRLYCRLHSLYTPVIKDRDYHLKTYKSVLPGSKLVDWLLAQGDCQTREEAVALGVGLCNNGFMHHVLEKSEFRDESQYFRFHADEEMEGTSSKNKQLRNDFKLVENILAKRLLILPQEEDYGFDIEEKNKAVVVKSVQRGSLAEVAGLQVGRKIYSINEDLVFLRPFSEVESILNQSFCSRRPLRLLVATKAKEIIKIPDQPDTLCFQIRGAAPPYVYAVGRGSEAMAAGLCAGQCILKVNGSNVMNDGAPEVLEHFQAFRSRREEALGLYQWIYHTHEDAQEARASQEASTEDPSGEQAQEEDQADSAFPLLSLGPRLSLCEDSPMVTLTVDNVHLEHGVVYEYVSTAGVRCHVLEKIVEPRGCFGLTAKILEAFAANDSVFVENCRRLMALSSAIVTMPHFEFRNICDTKLESIGQRIACYQEFAAQLKSRVSPPFKQAPLEPHPLCGLDFCPTNCHINLMEVSYPKTTPSVGRSFSIRFGRKPSLIGLDPEQGHLNPMSYTQHCITTMAAPSWKCLPAAEGDPQGQGLHDGSFGPASGTLGQEDRGLSFLLKQEDREIQDAYLQLFTKLDVALKEMKQYVTQINRLLSTITEPTSGGSCDTSLAEEASSLPLVSEESEMDRSDHGGIKKVCFKVAEEDQEDSGHDTMSYRDSYSECNSNRDSVLSYTSVRSNSSYLGSDEMGSGDELPCDMRIPSDKQDKLHGCLEHLFNQVDSINALLKGPVMSRAFEETKHFPMNHSLQAIHPFTHSATHAPINPSVHPPLHPTTHLPSIHPPTHPPTHPSIYPPTHPSIHLLVCPSIHPSLLPSVCPLFHPSTHSFIIYLSIHASVHPVNNFPEPACARPCTGHWRP", "soluble on expression in E. coli": "soluble"},
      {"sequence": "REGMNTIARNLGITCSADIGLISIEYTCFSNNLSYTQVLSLPKTGVNTDKLDQMERFVKEFGNDCSSLTIRQIHNKLDTVQRK", "soluble on expression in E. coli": "not soluble"},
      {"sequence": "MAHHHHHHMREKTTSAATPMRCRKELAATLTRTRNSPRTPVTFELATERGLHNFSRRGPRVRAKSSIAVHAATASPLSLLEQTLWTEIEQLNAATNRLRERILEVKREFSADAIAAVTGGEPLPVEARTGGLFRNPPKQRGQNSKDEPPYAVTFTPSHSQKKAANVRLQFTSPRKTPMKENDSSVLTSLAMFEYTPQNDDHREGARPTENRNVLQELKRDETFETGTPVHLSEAATMGGPFVVDLQKSDHGAANNTAEKPTELSTSVDSARESAKHLLLQANMMGVEQDLNHYMSDLLAIQRDTLDAQKRGLIDPNDSSVRELRLGIRDELNACRARILTLESLQTSLSAGVATKKTIS", "soluble on expression in E. coli": "not soluble"},
      {"sequence": "SNANFNRFTQRAKKAIDLAFESAKSLGHNIVGSEHILLGLLREEEGIAAKVLSKVGFTEAYLEGKIVDMEGKGEEISEDIVLSPRSKQILELSGMFANKLKTNYIGTEHILLAIIQEGEGIANKILNYAGVNDRTLAQLTIDMMG", "soluble on expression in E. coli": "soluble"},
      {"sequence": "AHHHHHHGSNKRFPFPVGEPDFIQGDEAIARAAILAGCRFYAGYPITPASEIFEAMALYMPLVDGVVIQMEDEIASIAAAIGASWAGAKAMTATSGPGFSLMQENIGYAVMTETPVVIVDVQRSGPSTGQPTLPAQGDIMQAIWGTHGDHSLIVLSPSTVQEAFDFTIRAFNLSEKYRTPVILLTDAEVGHMRERVYIPNPDEIEIINRKLPRNEEEAKLPFGDPHGDGVPPMPIFGKGYRTYVTGLTHDEKGRPRTVDREVHERLIKRIVEKIEKNKKDIFTYETYELEDAEIGVVATGIVARSALRAVKMLREEGIKAGLLKIETIWPFDFELIERIAERVDKLYVPEMNLGQLYHLIKEGANGKAEVKLISKIGGEVHTPMEIFEFIRREFK", "soluble on expression in E. coli": "soluble"},
      {"sequence": "MGSDKIHHHHHHMTQSFIVDEAFWQLFPEVEIAFLTAQDIDNHAKEQVPTDLLTTANHVAATKWVPNDPISQNTVVQDWRQAFQQFKTKKGARCAVENLLKRAKNGKGVGTINPVVDVYNSVSLEWAFPVAAEDMDQIKGDIHLTVAQGGERFRPIGEDDVETALPGEVIYRDAYDVISRCWAWRDSARVEATEATQNLLFYMENVNPQRHADHVAATAALRTRLHDYLGISTTLHVVTHDQPSVAFKD", "soluble on expression in E. coli": "not soluble"},
      {"sequence": "AKLGAVYTEGGFVEGVNKKLGLLGDSVDIFKGIPFAAPTKALENPQPHPGWQGTLKAKNFKKRCLQATITQDSTYGDEDCLYLNIWVPQGRKQVSRDLPVMIWIYGGAFLMGSGHGANFLNNYLYDGEEIATRGNVIVVTFNYRVGPLGFLSTGDANLPGNYGLRDQHMAIAWVKRNIAAFGGDPDNITLFGESAGGASVSLQTLSPYNKGLIRRAISQSGVALSPWVIQKNPLFWAKKVAEKVGCPVGDAARMAQCLKVTDPRALTLAYKVPLAGLEYPMLHYVGFVPVIDGDFIPDDPINLYANAADIDYIAGTNNMDGHIFASIDMPAINKGNKKVTEEDFYKLVSEFTITKGLRGAKTTFDVYTESWAQDPSQENKKKTVVDFETDVLFLVPTEIALAQHRANAKSAKTYAYLFSHPSRMPVYPKWVGADHADDIQYVFGKPFATPTGYRPQDRTVSKAMIAYWTNFAKTGDPNMGDSAVPTHWEPYTTENSGYLEITKKMGSSSMKRSLRTNFLRYWTLTYLALPTVT", "soluble on expression in E. coli": "soluble"},
      {"sequence": "GPGSMQAPSEDDVARKEALKRRVEEHMLWKMTFFQSRPPPPFIPKCRRRPEPIANAPVHSFYKRALEIVSAEKEHMSSFCSSASPPTMTKTEPPEGDGAKSKQDVWKHKMMLEMERRNPYTDINIRTDPRSTVVVSSLHPKSLEEDIRLFGEQFGRVVSVRLICDHNGKSRRYGFVQFGLEAEARKAVAHSRKRRLHGHAVVMEMERGRLDRDFLPKRLAEAKRQIEGSSSLCSDKRQRMEGSVKCPPAVAAGRSLPIPVSDTRDEVDAFLDDIMNLT", "soluble on expression in E. coli": "not soluble"},
      {"sequence": "MVAISDLRGLSLPEALGGIVEAIENVEVGEQVQFVLDSDADVEAITTHLSEYAECSAEKGDRFILLKVTKRAEFKADEEEEFRIDENTNVGRLIERYPEATEILASYGFTPLRNPVLRKTLAKTITLGRAKMLKKLSDEEFEEMLRKLRELRG", "soluble on expression in E. coli": "not soluble"},
      {"sequence": "GLVLPHTEFQPAPKQDSSPHLTSQRPVDMVQLLKKYPIVWQGLLALKNDTAAVQLHFVSGNNVLAHRSLPLSEGGPPLRIAQRMRLEATQLEGVARRMTVETDYCLLLALPCGRDQEDVVSQTESLKAAFITYLQAKQAAGIINVPNPGSNQPAYVLQIFPPCEFSESHLSRLAPDLLASISNISPHLMIVIASV", "soluble on expression in E. coli": "soluble"},
      {"sequence": "MRTVVPFDPRDPKSRLAEFFADAEERRGFAYAMLADVLGAVRDAGGDPVVVATAPVSRPVDAPVTVDDRALSTAVAAAIADGPLPTAVVMADLALATPDAIRRVFAASGDVVLAPGSGGGTNVVLARTADVPVSYHGVSFRDHVTAAERAGLTVTTVDSFRLAADVDDASDLVDVFVHNTRRTREWLIAGGWRLAVDDGTPTVVREPND", "soluble on expression in E. coli": "not soluble"}
    ]}
  ]
}
